According to patent US11370846B2, “Compositions and methods to regulate Renalase in the treatment of cancer” (Yale University, priority 2014, dated 2022):

What was measured:
Assay type in all cases: cell-based, human
[1] = tested on: melanoma cells (A375.S2, MeWo, SkMe15, and SkMe128); assay: Survival of serum-starved melanoma cells with rRNLS, WST-1; conditions: 30 ug/ml, 72 hrs, compared to BSA
Description: FIG. 18A and FIG. 18B are two charts showing that RNLS overexpression favors cancer cell survival.
For additional studies, cell viability was determined using WST-1 reagent (Roche Diagnostics, Indianapolis, Ind., USA) according to the manufacturers' instruction. Absorbances were read using a microplate reader (Power Waves XS, BioTek Instruments, Winooski, Vt., USA).

[2] = tested on: MiaPaCa2 cells; assay: FACS cell cycle analysis of MiaPaCa2 cells treated with rRNLS; conditions: 30 μg/ml, compared to BSA
Description: For cell cycle analysis, cultured cells were dissociated using 10 mM EDTA, fixed with ice-cold 70% ethanol, digested with RNAse A, and stained with propidium iodide. Propidium staining was detected using a BD FACSCalibur flow cytometer (BD Biosciences, San Jose, Calif., USA), and analyzed using CellQuest software.

[3] = tested on: STAT3; assay: STAT phosphorylation in HK-2 cells treated with RNLS
[4] = tested on: STAT3; assay: STAT3 phosphorylation in Panc1 cells by western blot; conditions: addition of RNLS
Description: FIG. 27A through FIG. 27E are a series of images and charts showing the interaction between RNLS and STAT3, and the mechanistic model of inhibition by m28-RNLS. FIG. 27A is an image showing activation of STAT3 by RNLS in Panc1 cells; Panc1 cells in culture treated with either BSA or RNLS, and STAT3 phosphorylation assessed by western blot; p-Ser^727-STAT3: phosphorylation at serine 727, p-Y^705-STAT3: phosphorylation at tyrosine 705; representative study. FIG. 27B is a chart depicting the quantification of STAT3 phosphorylation with RNLS; signals normalized to total STAT3; n=3, *=P<0.05. […] FIG. 27D is a chart showing the quantification of STAT3 phosphorylation with m28-RNLS; signals normalized to GAPDH loading control; n=3, *=P<0.05. FIG. 27E depicts the proposed mechanistic model for antitumor activity of m28-RNLS.

B1: rRNLS: Recombinant human RNLS (renalase) (protein)
chain: ALLRRQTSGPLYLAVWDKAEDSGGRMTTACSPHNPQCTADLGAQYITCTPHYAKKHQRFYDELLAYGVLRPLSSPIEGMVMKEGDCNFVAPQGISSIIKHYLKESGAEVYFRHRVTQINLRDDKWEVSKQTGSPEQFDLIVLTMPVPEILQLQGDITTLISECQRQQLEAVSYSSRYALGLFYEAGTKIDVPWAGQYITSNPCIRFVSIDNKKRNIESSEIGPSLVIHTTVPFGVTYLEHSIEDVQELVFQQLENILPGLPQPIATKCQKWRHSQVTNAAANCPGQMTLHHKPFLACGGDGFTQSNFDGCITSALCVLEALKNYI
survival of serum-starved melanoma cells [1]: markedly increased the survival
cell cycle progression [2]: no effect
increase in STAT3 phosphorylation at serine 727 (p-Ser727-STAT3) [3]: 2 fold
increase in STAT3 phosphorylation at tyrosine 705 (p-Y705-STAT3) [3]: 4 fold
phosphorylated STAT3 (p-Ser727-STAT3 and p-Y705-STAT3) in Panc1 [4]: rapid increase
